Data on three molecules can be found in paper PMC6212840.

Read-outs that look alike come from different tables or passages of the source.

Assay [1] concerns the target TbMP18-FL (aa 19-164) (Trypanosoma brucei).
Assay [2] shares this target. Nature of the assay: SEC.

A word on the stoichiometry N: it is the number of molecules, sites or subunits per partner or assembly. For the molecule TbMP24-FL (aa 47-246) (natural protein), the stoichiometry N was 1.1 in assay [1] and 1.5 in assay [2].

Regarding TbMP18-FL (aa 19-164) (natural protein), in assay [2], the stoichiometry N worked out at 4.

B1: TbMP63-OB (aa 472-587) (domain or fragment)
chain: SAIGASWAETELIPHAQCVSNITIVGRVLDVSQASENVSHVTVFVEGERSGEEETLTLCCFGEVSQKIRGTLKRNATIFASGTLRLHPVYEASNNKYYVSPVVHVSMPTGTLAVIT
Take B1: the stoichiometry N in assay [1] was determined as 0.67.
